From paper PMC6579858 come the findings set out here.

This series in a line: FACS of transfected HeLa. The settings on record: glycan lost; control: wild type MOG.

B1: myelin oligodendrocyte glycoprotein (MOG): N31A (protein)
parent chain: MASLSRPSLPSCLCSFLLLLLLQVSSSYAGQFRVIGPRHPIRALVGDEVELPCRISPGKNATGMEVGWYRPPFSRVVHLYRNGKDQDGDQAPEYRGRTELLKDAIGEGKVTLRIRNVRFSDEGGFTCFFRDHSYQEEAAMELKVEDPFYWVSPGVLVLLAVLPVLLLQITVGLIFLCLQYRLRGKLRAEIENLHRTFDPHFLRVPCWKITLFVIVPVLGPLVALIICYNWLHRRLAGQFLEELRNPF
For B1, the expression_or_secretion entry is recorded as “no change”.

B2: myelin oligodendrocyte glycoprotein (MOG): N31D (protein)
parent chain: MASLSRPSLPSCLCSFLLLLLLQVSSSYAGQFRVIGPRHPIRALVGDEVELPCRISPGKNATGMEVGWYRPPFSRVVHLYRNGKDQDGDQAPEYRGRTELLKDAIGEGKVTLRIRNVRFSDEGGFTCFFRDHSYQEEAAMELKVEDPFYWVSPGVLVLLAVLPVLLLQITVGLIFLCLQYRLRGKLRAEIENLHRTFDPHFLRVPCWKITLFVIVPVLGPLVALIICYNWLHRRLAGQFLEELRNPF
As to B2, the expression_or_secretion entry is on record as “no change”.
